Where a chain is given by its changes, count along the chain named. Read-outs that look alike come from different tables or passages of the source.
T1: human HVEM-mFc (TNFRSF14, ACRO, Cat#: HVM-H5255) (human, UniProt Q92956 39-202)
T1 construct: bought protein; also called HVEM(TNFRSF14); not shown: mouse Fc (mFc)
T1 sequence (looked up): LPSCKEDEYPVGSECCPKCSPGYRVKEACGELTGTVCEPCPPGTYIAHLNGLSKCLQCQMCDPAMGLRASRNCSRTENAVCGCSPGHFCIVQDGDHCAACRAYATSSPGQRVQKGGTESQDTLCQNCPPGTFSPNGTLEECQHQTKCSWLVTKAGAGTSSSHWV

T2: human DR6 (TNFRSF21, Sino Biological, Cat#: 10175-H08H) (human, UniProt O75509 42-349)
T2 construct: bought recombinant protein
T2 sequence (looked up): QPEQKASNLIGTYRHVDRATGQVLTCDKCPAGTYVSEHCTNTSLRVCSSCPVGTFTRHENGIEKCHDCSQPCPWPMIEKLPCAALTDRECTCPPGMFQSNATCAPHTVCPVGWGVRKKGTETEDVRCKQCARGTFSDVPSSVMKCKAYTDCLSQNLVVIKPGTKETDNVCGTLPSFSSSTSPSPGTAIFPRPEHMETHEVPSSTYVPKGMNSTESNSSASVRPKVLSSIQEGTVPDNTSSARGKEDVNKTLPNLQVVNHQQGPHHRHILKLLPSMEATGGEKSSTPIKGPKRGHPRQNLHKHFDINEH

T3: recombinant human OX40-his (Sino Biological, Cat#:10481-H03H) (human, UniProt P43489 29-214)
T3 construct: bought protein; also called hOX40-his; not shown: His tag
T3 sequence: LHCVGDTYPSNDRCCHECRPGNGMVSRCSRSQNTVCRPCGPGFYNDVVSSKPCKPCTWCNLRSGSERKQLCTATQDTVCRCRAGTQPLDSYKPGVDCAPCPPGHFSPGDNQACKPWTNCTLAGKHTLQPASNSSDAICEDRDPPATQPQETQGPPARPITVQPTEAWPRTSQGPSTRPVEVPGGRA

T4: recombinant rhesus OX40-his (Sino Biological, Cat#:90846-C08H) (rhesus monkey, UniProt P43489 29-214 (human entry))
T4 construct: bought protein; also called monkey OX40-his; rhOX40-his; not shown: His tag
T4 chain: T3 sequence with H16Q, S29N, S50A, P55A, L70P, A145P, I159T, G173R, G183R, R185P

T5: murine OX40-His (Crown, Cat#: E3350-B1707) (mouse, UniProt P47741 20-211)
T5 construct: bought protein; also called mouse OX40-his; muOX40-his; not shown: His tag
T5 sequence: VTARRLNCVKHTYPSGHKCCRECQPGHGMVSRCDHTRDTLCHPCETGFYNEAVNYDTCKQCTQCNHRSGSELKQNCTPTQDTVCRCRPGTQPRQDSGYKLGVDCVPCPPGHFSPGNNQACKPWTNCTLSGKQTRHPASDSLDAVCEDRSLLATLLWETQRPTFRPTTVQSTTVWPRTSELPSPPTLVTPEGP

B1: 68C8-VH2VL3 (antibody, human IgG1, kappa, V domains shown)
VH: QVQLVQSGAEVKKPGASVKVSCKVSGDTFTSYWITWVRQRPGKGLEWMGDIHPGSGSTNNNEKFKNRVTMTVDTSTDTAYMELSSLRSEDTAVYYCATLRPYYFVYWGQGTLVTVSS
VL: DIQMTQSPSSLSASVGDRVTITCRASQDISNYLNWYQQKPGKTVKLLIYYTSRLLSGVPSRFSGSGSGTDYTLTISSLQPEDFATYFCQQGNTLPLTFGQGTRLEIKR
notes: humanized; also called 68C8-H2L3; 68C8H2L3
B2: 71H8-VH2VL3 (antibody, human IgG1, kappa, V domains shown)
VH: B1 VH with D27Y, H52Y, N60Q, N66S
VL: B1 VL
notes: humanized; also called 71H8-H2L3; 71H8H2L3

Tests used:
[1] = molecular target: T1, human HVEM-mFc (TNFRSF14, ACRO, Cat#: …); test: ELISA on coated recombinant human TNFRSF protein, OD450
Procedure: (§1) ELISA assays were performed to determine the binding specificity of anti-OX40 antibodies to human OX40, in comparison to other human TNFRSF members with homologous amino acid sequences, following the protocol described in Example 2.

[2] = molecular target: T2, human DR6 (TNFRSF21, Sino Biological, …); test: as above
Procedure: as §1

[3] = molecular target: T6, human 4-1BB (TNFRSF9, ACRO, Cat#:41B-H522a) (human, UniProt Q07011 24-186); test: as above
T6 construct: bought recombinant protein
Procedure: as §1

[4] = molecular target: T7, human CD40-his (TNFRSF5, Sino Biological, Cat#:10774-H08H) (human, UniProt P25942 21-193); test: as above
T7 construct: bought protein; also called recombinant human CD40 (TNFRSF5); not shown: His tag
Procedure: as §1

[5] = molecular target: T3, recombinant human OX40-his (Sino …); test: ELISA on coated human OX40-his, OD450
[6] = molecular target: T4, recombinant rhesus OX40-his (Sino …); test: ELISA on coated rhesus OX40-His, OD450
[7] = molecular target: T5, murine OX40-His (Crown, Cat#: …); test: ELISA on coated mouse OX40-His, OD450
[8] = molecular target: T4, recombinant rhesus OX40-his (Sino …); test: ELISA on coated rhesus OX40-His, OD450
[9] = molecular target: T3, recombinant human OX40-his (Sino …); test: ELISA on coated human OX40-his, OD450; remark: listed apart in the source
[10] = molecular target: T3, recombinant human OX40-his (Sino …); test: ELISA on coated human OX40-His, OD450
[11] = molecular target: T5, murine OX40-His (Crown, Cat#: …); test: ELISA on coated mouse OX40-His, OD450; remark: listed apart in the source

T7 sequence (P25942 21-193 limits assumed): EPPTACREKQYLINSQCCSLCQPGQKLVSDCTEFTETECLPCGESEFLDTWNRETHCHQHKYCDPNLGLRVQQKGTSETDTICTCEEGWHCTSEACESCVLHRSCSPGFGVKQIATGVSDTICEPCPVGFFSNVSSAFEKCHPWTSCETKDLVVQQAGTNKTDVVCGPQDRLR

Binder	binding result [1]	binding result [2]	binding result [3]	binding result [4]	EC50 (read off the curve) [5] [ng/mL]	binding result [6]	binding result [7]	EC50 (read off the curve) [8] [ng/mL]	EC50 (read off the curve) [9] [ng/mL]	EC50 (read off the curve) [10] [ng/mL]	binding result [11]
B1	no binding (tested: about 10000 ng/mL (log about 4))	no binding (tested: about 10000 ng/mL (log about 4))	no binding (tested: about 10000 ng/mL (log about 4))	no binding (tested: about 10000 ng/mL (log about 4))	~3	binds	no binding (tested: 10000 ng/ml (log 4))				
B2	no binding (tested: about 10000 ng/mL (log about 4))	no binding (tested: about 10000 ng/mL (log about 4))	no binding (tested: about 10000 ng/mL (log about 4))	no binding (tested: about 10000 ng/mL (log about 4))				~3	~7	~3	no binding (tested: 10000 ng/ml (log 4))

From patent US10442866 (BEIJING MABWORKS BIOTECH, dated 2019)
